Data taken from US20240270857A1 (CHIA TAI TIANQING PHARMACEUTICAL GROUP, published 2024).
Like-named read-outs stand apart in the source and are kept apart here.

T1: human IL-36R overexpressed on 293T-hIL36R-NFκB cells (human, UniProt Q9HB29 20-575)
T1 sequence: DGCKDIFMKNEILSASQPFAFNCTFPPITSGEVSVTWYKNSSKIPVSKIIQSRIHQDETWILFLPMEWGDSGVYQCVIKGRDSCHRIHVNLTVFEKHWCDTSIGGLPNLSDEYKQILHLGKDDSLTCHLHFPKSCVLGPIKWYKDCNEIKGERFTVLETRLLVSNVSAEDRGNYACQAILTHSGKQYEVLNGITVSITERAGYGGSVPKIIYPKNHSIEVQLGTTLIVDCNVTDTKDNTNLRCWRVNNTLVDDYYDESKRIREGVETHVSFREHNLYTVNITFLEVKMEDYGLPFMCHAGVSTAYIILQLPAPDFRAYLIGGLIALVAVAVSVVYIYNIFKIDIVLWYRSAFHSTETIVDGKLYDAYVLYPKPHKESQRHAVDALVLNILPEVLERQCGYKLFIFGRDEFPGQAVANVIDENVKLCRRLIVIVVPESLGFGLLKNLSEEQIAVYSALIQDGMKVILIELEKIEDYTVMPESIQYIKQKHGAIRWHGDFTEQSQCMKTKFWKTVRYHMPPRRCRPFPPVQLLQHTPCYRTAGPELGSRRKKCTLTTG

T2: cynomolgus IL-36R overexpressed on 293T-CynoIL36R-NFκB cells (cynomolgus monkey)
T2 chain: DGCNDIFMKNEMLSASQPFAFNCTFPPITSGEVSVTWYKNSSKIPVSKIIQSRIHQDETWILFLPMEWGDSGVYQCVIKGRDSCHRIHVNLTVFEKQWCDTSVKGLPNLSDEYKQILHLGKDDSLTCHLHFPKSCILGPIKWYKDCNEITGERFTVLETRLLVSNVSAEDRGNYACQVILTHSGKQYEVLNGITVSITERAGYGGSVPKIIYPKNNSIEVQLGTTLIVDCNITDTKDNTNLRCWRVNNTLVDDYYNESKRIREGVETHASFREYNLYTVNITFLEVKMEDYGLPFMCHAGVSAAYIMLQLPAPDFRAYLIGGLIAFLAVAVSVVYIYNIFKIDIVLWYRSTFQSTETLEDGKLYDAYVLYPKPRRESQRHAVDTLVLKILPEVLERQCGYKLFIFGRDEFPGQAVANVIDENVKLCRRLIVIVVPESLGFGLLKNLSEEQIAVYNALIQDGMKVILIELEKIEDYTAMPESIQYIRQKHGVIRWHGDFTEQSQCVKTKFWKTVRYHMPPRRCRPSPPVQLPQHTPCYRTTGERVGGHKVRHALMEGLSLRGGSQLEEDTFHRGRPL

T3: IL-36R naturally expressed on OVCAR8 cells and on normal human epidermal keratinocytes (NHK cells) (human, UniProt Q9HB29 20-575)
T3 sequence (looked up): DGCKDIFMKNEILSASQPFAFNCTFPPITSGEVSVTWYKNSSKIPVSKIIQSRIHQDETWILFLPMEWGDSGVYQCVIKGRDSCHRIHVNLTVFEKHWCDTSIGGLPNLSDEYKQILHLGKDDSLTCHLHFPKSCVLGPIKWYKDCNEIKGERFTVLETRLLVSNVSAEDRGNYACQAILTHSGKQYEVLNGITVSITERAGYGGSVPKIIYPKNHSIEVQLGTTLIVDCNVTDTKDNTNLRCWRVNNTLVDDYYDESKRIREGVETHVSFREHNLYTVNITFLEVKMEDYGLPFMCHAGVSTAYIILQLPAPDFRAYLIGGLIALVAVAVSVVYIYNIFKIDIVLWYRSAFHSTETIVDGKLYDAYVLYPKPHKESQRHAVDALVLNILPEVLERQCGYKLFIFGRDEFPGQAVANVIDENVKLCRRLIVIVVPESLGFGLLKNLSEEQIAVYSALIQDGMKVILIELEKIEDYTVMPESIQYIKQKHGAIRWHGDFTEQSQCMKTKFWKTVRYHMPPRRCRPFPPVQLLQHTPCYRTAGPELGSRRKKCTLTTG


Columns and labels:
[1] = target: T1, human IL-36R overexpressed on …; assay: cell-based or functional assay
[2] = target: T1, human IL-36R overexpressed on …; assay: cell-based or functional assay; remark: listed apart in the source
[3] = target: T2, cynomolgus IL-36R overexpressed on …; assay: cell-based or functional assay
[4] = target: T3, IL-36R naturally expressed on OVCAR8 …; assay: cell-based or functional assay
[5] = target: T3, IL-36R naturally expressed on OVCAR8 …; assay: cell-based or functional assay; remark: listed apart in the source
[6] = target: T3, IL-36R naturally expressed on OVCAR8 …; assay: cell-based or functional assay; remark: listed apart in the source
[7] = target: T3, IL-36R naturally expressed on OVCAR8 …; assay: cell-based or functional assay; remark: listed apart in the source
[8] = target: T3, IL-36R naturally expressed on OVCAR8 …; assay: cell-based or functional assay; remark: listed apart in the source
[9] = target: T1, human IL-36R overexpressed on …; assay: FACS on 293T-hIL36R-NFκB cells, ratio of MFI to background MFI
Protocol: After the cells was washed with PBS, the cells were resuspended with 100 μL of PBS and then the fluorescence signal was detected using a flow cytometer (BD, Accuri C6). […] The ratio was the ratio of mean fluorescence intensity (MFI) of the experimental group/the background MFI, and the resulting data were analyzed using GraphPad Prism.

Binder	IC50; NFκB-luciferase reporter in 293T-hIL36R-NFκB cells stimulated with hIL36β, inhibition rate % [1]	IC50; NFκB-luciferase reporter in 293T-hIL36R-NFκB cells stimulated with hIL36γ, inhibition rate % [2]	IC50; NFκB-luciferase reporter in 293T-CynoIL36R-NFκB cells stimulated with hIL36β, inhibition rate % [3]	IC50; IL-8 production of OVCAR8 cells stimulated with hIL36α, inhibition rate % [4]	IC50; IL-8 production of OVCAR8 cells stimulated with hIL36β, inhibition rate % [5]	IC50; IL-8 production of OVCAR8 cells stimulated with hIL36γ, inhibition rate % [6]	IC50; IL-8 production of NHK cells stimulated with hIL36α, inhibition rate % [7]	IC50; IL-8 production of NHK cells stimulated with hIL36α, inhibition rate % [8]	EC50 [9]
BI655130 (antibody, human IgG1, kappa, L234A L235A, also called Spesolimab) heavy: not shown light: QIVLTQSPGTLSLSPGERATMTCTASSSVSSSYFHWYQQKPGQAPRLWIYRTSRLASGVPDRFSGSGSGTDFTLTISRLEPEDAATYYCHQFHRSPLTFGAGTKLEIKRTVAAPSVFIFPPSDEQLKSGTASVVCLLNNFYPREAKVQWKVDNALQSGNSQESVTEQDSKDSTYSLSSTLTLSKADYEKHKVYACEVTHQGLSSPVTKSFNRGEC	5.02 nM	~13.2 nM	56.3 nM	0.0799 nM	0.0755 nM	0.0592 nM	0.214 nM	0.0741 nM	7.02 nM
chimeric 84C4 antibody (antibody, human IgG4 S228P, kappa, Mouse variable regions on human IgG4 / kappa; also called xi84C4) heavy: not shown light: DILMTQSPSSLSASLGERVSLTCRASQDIGNALNWLQQAPDGTIKRLIYATSSLDPGVPKRFSGSRSGSDYSLTISSLASEDFVYYYCLQYASSPYTFGGGTKLEIKRTVAAPSVFIFPPSDEQLKSGTASVVCLLNNFYPREAKVQWKVDNALQSGNSQESVTEQDSKDSTYSLSSTLTLSKADYEKHKVYACEVTHQGLSSPVTKSFNRGEC		~13.2 nM				0.0181 nM	1.02 nM		
chimeric 72C1 antibody (antibody, human IgG4 S228P, kappa, Mouse variable regions on human IgG4 / kappa; also called xi72C1) heavy: not shown light: EILLTQSPAIMSATLGEKVTMSCRASSNVRYMYWYQLKSGASPKLWIYLTSNLASGVPARFSGSGSGTSYSLTISSVEAEDAATYFCQQFTTSPYTFGGGTKLEIKRTVAAPSVFIFPPSDEQLKSGTASVVCLLNNFYPREAKVQWKVDNALQSGNSQESVTEQDSKDSTYSLSSTLTLSKADYEKHKVYACEVTHQGLSSPVTKSFNRGEC	7.51 nM		3.6 nM	0.113 nM	0.116 nM			0.159 nM	6.47 nM
